Assays:
Type in all cases: cell-based
Conditions in all cases: positive control
Tie2 receptor [1] = target: T1, Tie2 receptor (Rattus norvegicus, UniProt A0A8I5ZW61); assay: Tie2 phosphorylation in primary rat glomerular endothelial cells
T1 construct: host or cells: primary rat glomerular endothelial cells
Protocol: Rat primary glomerular endothelial cells (Cell Biologics) were grown in Complete rat endothelial cell medium/w kit (Cell Biologics) in 20% O2, 5% CO2 and 37° C. humidified chamber and split 1:3 once reaching 80-90% confluency. To examine the activation of Tie2 by MPA-Br in rat kidney glomerular endothelial cells, 95-100% confluent cells were stimulated with indicated concentrations of the test agent in serum-containing media for 15 minutes. Human Ang-1 (R&D Systems) was used as positive control. Cell lysates were collected using lysis buffer IC12 (detailed above) recommended in Human phospho-Tie-2 ELISA kit (R&D Systems), tyrosine-phosphorylated Tie2 and total Tie2 were measured using ELISA (Human phospho-Tie2 and total-Tie2 ELISA kits, R&D Systems) with substitution of capture antibody validated for rat Tie2. Mouse anti-Tie2 antibody (BD Pharmingen™) and rabbit TEK polyclonal antibody (MyBioSource) were used as capture antibody in pTie2 and total Tie2 ELISA, respectively. The level of Tie2 phosphorylation for all treatment groups was then normalized to that of the no treatment group (NT, complete rat endothelial cell medium) in each experiment.

Tie2 receptor [2] = target: T2, Tie2 receptor (Canis lupus familiaris, UniProt A0A8I3P3D4); assay: Tie2 phosphorylation in primary canine aortic endothelial cells
T2 construct: primary cultured endothelial cells derived from canine aorta; host or cells: primary canine aortic endothelial cells
Protocol: Canine primary aortic endothelial cells (Cell Biologics) were grown in Complete canine endothelial cell medium/w kit (Cell Biologics) in 20% O2, 5% CO2 and 37° C. humidified chamber and split 1:3 once reaching 80-90% confluency. Tie2 activation studies performed on primary cynomolgus monkey glomerular endothelial cells were performed according to approaches detailed above for the rat primary glomerular endothelial cell studies.

Tie2 receptor [3] = assay: Tie2 phosphorylation in primary cynomolgus monkey glomerular endothelial cells
Protocol: Primary cynomolgus monkey glomerular endothelial cells (Cell Biologics) were cultured according to details provided above for HMVEC^tert. Tie2 activation studies performed on primary cynomolgus monkey glomerular endothelial cells were performed according to approaches detailed above for the rat primary glomerular endothelial cell studies.

T2 sequence (A0A8I3P3D4 entry or part of it): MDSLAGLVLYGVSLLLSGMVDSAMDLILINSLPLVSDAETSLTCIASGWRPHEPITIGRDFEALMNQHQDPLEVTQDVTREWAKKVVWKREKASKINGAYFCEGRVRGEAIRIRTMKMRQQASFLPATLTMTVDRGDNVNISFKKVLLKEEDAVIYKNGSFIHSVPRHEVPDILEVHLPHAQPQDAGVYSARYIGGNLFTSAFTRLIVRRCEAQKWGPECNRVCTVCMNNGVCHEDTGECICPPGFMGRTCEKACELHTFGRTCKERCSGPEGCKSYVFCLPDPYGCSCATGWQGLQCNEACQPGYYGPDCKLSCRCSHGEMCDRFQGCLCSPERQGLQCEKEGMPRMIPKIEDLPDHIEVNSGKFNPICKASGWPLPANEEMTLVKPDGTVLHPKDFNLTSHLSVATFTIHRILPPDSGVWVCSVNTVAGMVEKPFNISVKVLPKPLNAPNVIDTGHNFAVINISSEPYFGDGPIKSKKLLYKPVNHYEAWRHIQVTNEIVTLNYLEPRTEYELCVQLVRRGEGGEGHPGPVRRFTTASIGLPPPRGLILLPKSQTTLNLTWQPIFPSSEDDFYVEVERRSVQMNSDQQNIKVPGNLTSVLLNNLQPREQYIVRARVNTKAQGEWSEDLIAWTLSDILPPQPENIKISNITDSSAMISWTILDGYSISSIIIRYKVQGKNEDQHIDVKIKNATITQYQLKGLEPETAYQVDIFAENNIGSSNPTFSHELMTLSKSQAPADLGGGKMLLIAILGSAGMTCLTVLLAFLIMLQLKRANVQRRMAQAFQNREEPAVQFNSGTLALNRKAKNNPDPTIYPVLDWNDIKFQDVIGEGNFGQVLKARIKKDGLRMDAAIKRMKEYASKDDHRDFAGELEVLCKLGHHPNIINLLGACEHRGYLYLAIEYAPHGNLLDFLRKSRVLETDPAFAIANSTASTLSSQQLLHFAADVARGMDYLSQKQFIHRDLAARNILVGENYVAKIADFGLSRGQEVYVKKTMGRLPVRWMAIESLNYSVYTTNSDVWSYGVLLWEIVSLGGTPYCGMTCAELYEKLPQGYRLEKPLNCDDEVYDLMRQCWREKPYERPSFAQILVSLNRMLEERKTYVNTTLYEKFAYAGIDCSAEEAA
T1 sequence (A0A8I5ZW61 20-1121): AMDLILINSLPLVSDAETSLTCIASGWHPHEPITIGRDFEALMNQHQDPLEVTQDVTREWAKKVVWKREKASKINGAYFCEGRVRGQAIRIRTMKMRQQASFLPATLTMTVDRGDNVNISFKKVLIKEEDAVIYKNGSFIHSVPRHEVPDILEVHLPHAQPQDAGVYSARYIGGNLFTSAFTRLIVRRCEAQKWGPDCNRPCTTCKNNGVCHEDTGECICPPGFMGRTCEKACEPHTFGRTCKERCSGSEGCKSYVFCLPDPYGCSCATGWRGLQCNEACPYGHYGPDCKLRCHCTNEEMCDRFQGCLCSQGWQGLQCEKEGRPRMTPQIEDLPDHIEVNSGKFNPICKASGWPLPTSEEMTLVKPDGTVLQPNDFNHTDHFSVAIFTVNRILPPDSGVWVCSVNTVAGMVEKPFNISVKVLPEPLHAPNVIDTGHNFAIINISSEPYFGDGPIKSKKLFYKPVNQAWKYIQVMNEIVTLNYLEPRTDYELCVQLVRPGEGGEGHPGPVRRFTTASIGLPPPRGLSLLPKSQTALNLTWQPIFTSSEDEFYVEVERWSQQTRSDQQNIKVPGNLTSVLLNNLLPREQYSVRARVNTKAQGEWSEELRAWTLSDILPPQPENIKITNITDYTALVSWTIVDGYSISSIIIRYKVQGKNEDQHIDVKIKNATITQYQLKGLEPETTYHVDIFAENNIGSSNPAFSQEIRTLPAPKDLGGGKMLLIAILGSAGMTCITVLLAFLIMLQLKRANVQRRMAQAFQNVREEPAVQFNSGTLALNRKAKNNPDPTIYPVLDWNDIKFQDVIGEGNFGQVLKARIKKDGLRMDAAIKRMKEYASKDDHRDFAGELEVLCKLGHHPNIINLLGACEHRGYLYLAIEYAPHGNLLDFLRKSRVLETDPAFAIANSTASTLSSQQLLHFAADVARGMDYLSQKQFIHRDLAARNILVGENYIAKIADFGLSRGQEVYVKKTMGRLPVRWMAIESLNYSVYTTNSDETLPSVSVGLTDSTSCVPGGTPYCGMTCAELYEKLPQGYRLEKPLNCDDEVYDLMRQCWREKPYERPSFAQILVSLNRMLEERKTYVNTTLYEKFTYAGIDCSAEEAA

B1: human recombinant Ang1: human recombinant angiopoietin 1 (R&D Systems), positive control for Tie2 and MAPK activation (protein, UniProt Q15389 16-498, looked up)
Angiopoietin-1: HIGCSNQRRSPENSGRRYNRIQHGQCAYTFILPEHDGNCRESTTDQYNTNALQRDAPHVEPDFSSQKLQHLEHVMENYTQWLQKLENYIVENMKSEMAQIQQNAVQNHTATMLEIGTSLLSQTAEQTRKLTDVETQVLNQTSRLEIQLLENSLSTYKLEKQLLQQTNEILKIHEKNSLLEHKILEMEGKHKEELDTLKEEKENLQGLVTRQTYIIQELEKQLNRATTNNSVLQKQQLELMDTVHNLVNLCTKEGVLLKGGKREEEKPFRDCADVYQAGFNKSGIYTIYINNMPEPKKVFCNMDVNGGGWTVIQHREDGSLDFQRGWKEYKMGFGNPSGEYWLGNEFIFAITSQRQYMLRIELMDWEGNRAYSQYDRFHIGNEKQNYRLYLKGHTGTAGKQSSLILHGADFSTKDADNDNCMCKCALMLTGGWWFDACGPSNLNGMFYTAGQNHGKLNGIKWHYFKGPSYSLRSTTMMIRPLDF
Tie2 receptor [1]
  Tie2 phosphorylation compared to no treatment: significant increase in baseline Tie2 phosphorylation
Tie2 receptor [2]
  Tie2 phosphorylation compared to no treatment: significant increase in baseline Tie2 phosphorylation
Tie2 receptor [3]
  Tie2 phosphorylation compared to no treatment: significant increase in baseline Tie2 phosphorylation
